These results are taken from article doi:10.1101/2024.05.21.594841.

“And” between values parts separate entries of the source, which are not always exact repeats. Identical values can stand only once.

The target in this experiment is these 5 target proteins. Put plainly: split reporter.

B1: Lhs1p (natural protein)
chain: AVLGVDYGQQNIKAIVVSPQAPLELVLTPEAKRKEISGLSIKRLPGYGKDDPNGIERIYGSAVGSLATRFPQNTLLHLKPLLGKSLEDETTVTLYSKQHPGLEMVSTNRSTIAFLVDNVEYPLEELVAMNVQEIANRANSLLKDRDARTEDFVNKMSFTIPDFFDQHQRKALLDASSITTGIEETYLVSEGMSVAVNFVLKQRQFPPGEQQHYIVYDMGSGSIKASMFSILQPEDTTQPVTIEFEGYGYNPHLGGAKFTMDIGSLIENKFLETHPAIRTDELHANPKALAKINQAAEKAKLILSANSEASINIESLINDIDFRTSITRQEFEEFIADSLLDIVKPINDAVTKQFGGYGTNLPEINGVILAGGSSRIPIVQDQLIKLVSEEKVLRNVNADESAVNGVVMRGIKLSNSFKTKPLNVVDRSVNTYSFKLSNESELYDVFTRGSAYPNKTSILTNTTDSIPNNFTIDLFENGKLFETITVNSGAIKNSYSSDKCSSGVAYNITFDLSSDRLFSIQEVNCICQSENDIGNSKQIKNKGSRLAFTSEDVEIKRLSPSERSRLHEHIKLLDKQDKERFQFQENLNVLESNLYDARNLLMDDEVMQNGPKSQVEELSEMVKVYLDWLEDASFDTDPEDIVSRIREIGILKKKIELYMDSAKEPLNSQQFKGMLEEGHKLLQAIETHKNTVEEFLSQFETEFADTIDNVREEFKKIKQPAYVSKALSTWEETLTSFKNSISEIEKFLAKNLFGEDLREHLFEIKLQFDMYRTKLEEKLRLIKSGDESRLNEIKKLHLRNFRLQKRKEEKLKRKLEQEKSRNNNETESTVINSADDKTTIVNDKTTESNPSSEEDILHDEL
As for B1, the normalized interacting score was 83% and 93%.
